The sequences below were run on Escherichia coli TOP10 (assay: shrunken log2 fold change of peptide-encoding DNA abundance (4.5 h post-induction vs induction); higher = less antimicrobial activity (less host growth inhibition)). Settings: time post-induction: 4.5 h; library: site-saturation at positions 5, 18, 19, 20.
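Also: peptides expressed intracellularly from a pBAD plasmid library in pooled LB shake-flask culture, induced with 0.3% L-arabinose, DNA abundance read by NGS, three biological replicates, DESeq2 with apeglm shrinkage.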

Row | Sequence | shrunken log2 fold change
1 | RRIRFRPPRLPRPRPRPFNHPRP | -0.285
2 | RRIRARPPRLPRPRPRPAFIPRP | 0.142
3 | RRIRDRPPRLPRPRPRPDSPPRP | -0.248
4 | RRIRNRPPRLPRPRPRPKDHPRP | -0.218
5 | RRIRRRPPRLPRPRPRPRKVPRP | 0.602
6 | RRIRRRPPRLPRPRPRPTFPPRP | 0.444
7 | RRIRMRPPRLPRPRPRPVGKPRP | 0.216
8 | RRIRSRPPRLPRPRPRPNGNPRP | -0.384
9 | RRIRYRPPRLPRPRPRPTKGPRP | -0.136
10 | RRIRTRPPRLPRPRPRPGAAPRP | 0.509
11 | RRIRYRPPRLPRPRPRPDCMPRP | 0.0186
12 | RRIRIRPPRLPRPRPRPHVLPRP | -0.198
13 | RRIRDRPPRLPRPRPRPCCHPRP | 0.0218
14 | RRIRHRPPRLPRPRPRPSAWPRP | 0.373
15 | RRIRKRPPRLPRPRPRPFPYPRP | -0.135
16 | RRIRPRPPRLPRPRPRPMDPPRP | 0.0118
17 | RRIRMRPPRLPRPRPRPPMLPRP | 0.382
18 | RRIRWRPPRLPRPRPRPYQRPRP | -0.85
19 | RRIRQRPPRLPRPRPRPPMMPRP | 0.154
20 | RRIRYRPPRLPRPRPRPDGLPRP | -0.528

Row | Sequence | shrunken log2 fold change
21 | RRIRVRPPRLPRPRPRPHRNPRP | -0.531
22 | RRIRPRPPRLPRPRPRPDHEPRP | 0.0217
23 | RRIRNRPPRLPRPRPRPKLGPRP | 0.055
24 | RRIRQRPPRLPRPRPRPTQAPRP | 0.186
25 | RRIRLRPPRLPRPRPRPQVTPRP | 0.0952
26 | RRIRHRPPRLPRPRPRPRVNPRP | 0.106
27 | RRIRGRPPRLPRPRPRPMDWPRP | 0.929
28 | RRIRVRPPRLPRPRPRPTRIPRP | 0.108
29 | RRIRCRPPRLPRPRPRPEGDPRP | 0.193
30 | RRIRIRPPRLPRPRPRPEERPRP | 0.0136
31 | RRIRIRPPRLPRPRPRPEDKPRP | -0.401
32 | RRIRIRPPRLPRPRPRPWFMPRP | -0.503
33 | RRIRNRPPRLPRPRPRPQERPRP | 0.0235
34 | RRIRQRPPRLPRPRPRPYSIPRP | 0.098
35 | RRIRNRPPRLPRPRPRPTFVPRP | -0.185
36 | RRIRSRPPRLPRPRPRPMLCPRP | -0.121
37 | RRIRIRPPRLPRPRPRPYVPPRP | -0.212
38 | RRIRGRPPRLPRPRPRPPCEPRP | 0.433
39 | RRIRDRPPRLPRPRPRPWCHPRP | -0.407
40 | RRIRTRPPRLPRPRPRPCGSPRP | 0.00855

Row | Sequence | shrunken log2 fold change
41 | RRIRQRPPRLPRPRPRPMIWPRP | -0.79
42 | RRIRPRPPRLPRPRPRPLIKPRP | -0.268
43 | RRIRGRPPRLPRPRPRPCADPRP | 1.48
44 | RRIRPRPPRLPRPRPRPETDPRP | 0.229
45 | RRIRRRPPRLPRPRPRPREQPRP | 0.803
46 | RRIRGRPPRLPRPRPRPHTFPRP | -0.0226
47 | RRIRRRPPRLPRPRPRPDIEPRP | 0.172
48 | RRIRCRPPRLPRPRPRPFLTPRP | -0.565
49 | RRIRIRPPRLPRPRPRPAPHPRP | -0.0179
50 | RRIRQRPPRLPRPRPRPEPCPRP | -0.0944
51 | RRIRKRPPRLPRPRPRPSLYPRP | 0.0834
52 | RRIRTRPPRLPRPRPRPWHYPRP | -0.268
53 | RRIRSRPPRLPRPRPRPDKCPRP | -0.173
54 | RRIRERPPRLPRPRPRPKIAPRP | -0.147
55 | RRIRWRPPRLPRPRPRPYMPPRP | -0.695
56 | RRIRVRPPRLPRPRPRPIQAPRP | -0.0344
57 | RRIRNRPPRLPRPRPRPCKRPRP | -0.0122
58 | RRIRPRPPRLPRPRPRPQINPRP | -0.122
59 | RRIRHRPPRLPRPRPRPHQSPRP | -0.0258
60 | RRIRVRPPRLPRPRPRPLHCPRP | 0.238

Source: the supplement of paper PMC9112550, “Optimization of the antimicrobial peptide Bac7 by deep mutational scanning” (BMC Biology, 2022)
